Results from the supplement of paper PMC10567573.
± gives the standard deviation.

Assay: protein stability index of a GFP-peptide fusion (GPS, HEK-293T) (PSI 1-6); higher = more stable
Details: c terminus: a fixed tail appended
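Further: 24-mer peptide tiles fused after GFP, lentivirally expressed, FACS-sorted into six equal bins by GFP/DsRed ratio, decoded by Illumina sequencing, PSI is the read-weighted mean bin number.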

Sequence | protein stability index (treatment: DMSO) | protein stability index (treatment: MLN4924 1 uM, 8 h)
GDHERAIDFSPYLEPLGAPQAPAP [CEBPB] | 4.56 ± 0.16 | 4.55 ± 0.24
EGGEGEKEGEGEVGGEAVEVEEVE [TRIM55] | 5.66 ± 0.35 | 5.41 ± 0.29
QREGTGKTVSLQIFSVLNSDDAAA [SMOC2] | 3.38 ± 0.24 | 3.35 ± 0.4
VYVSNMTDKLVTPGKYFSAAEYHA [IQUB] | 2.14 ± 0.47 | 1.96 ± 0.15
RAQLHVQGLLHEAGSTDDRIVVPQ [SPNS1] | 4.15 ± 0.1 | 4.23 ± 0.22
PFHDSDPSALFSKIRRGQFCIPEH [TRIB1] | 3.13 ± 0.25 | 3.12 ± 0.44
GGNHFRGTSDYDDVLSCEYYSPIL [KLHL13] | 2.81 ± 0.096 | 2.77 ± 0.18
LSLKRELSWYRGRRPRTAFTQNQI [HESX1] | 2.41 ± 0.27 | 2.66 ± 0.14
AIVSCTPVHLIDKLPLPVTIKSHL [RAB40C] | 2.18 ± 0.24 | 2.08 ± 0.19
LEEFQLALKHYVESASSQSGCLRI [NECAB1] | 2.21 ± 0.36 | 2.16 ± 0.17
PLTEQEESSPSHDRSRTVSASSTG [SRPK2] | 5.25 ± 0.28 | 5.51 ± 0.23
GHGIVGTIVKARDKLYHPECFMCS [PDLIM4] | 2.45 ± 0.069 | 2.67 ± 0.21
FSQSAGLIQHQRIHKGEKPYQCSQ [ZSCAN9] | 3.55 ± 0.071 | 3.68 ± 0.18
SWTGDGWEFKLSDPDEVARRWGKR [ETS1] | 3.73 ± 0.062 | 3.88 ± 0.25
EQALGKGCGADSKKKRPPQPPEES [PLK2] | 5.24 ± 0.41 | 5.36 ± 0.2
CGSKACRRLFGPVDSEQLRRDCDA [CDKN1A] | 3.18 ± 0.2 | 3.23 ± 0.093
GYNLTSISESMAACTRSLLGDPPP [HDAC6] | 3.52 ± 0.38 | 3.4 ± 0.2
LGQDRQVPLWGQLLLFLVFVIVLF [EMD] | 2.83 ± 0.58 | 2.79 ± 0.76
AYDFPSPEWDTVTPEAKDLINKML [CAMK2A] | 3.24 ± 0.24 | 3.58 ± 0.34
PLWQCYLGRFNDINVPIRLECVKF [PDS5B] | 2.46 ± 0.54 | 2.35 ± 0.28
DYEFRVVAVNNIGRGPPSEPVLTQ [PTPRD] | 3.08 ± 0.16 | 3.04 ± 0.47
VKALEDFEDLCDRVFSDEDSELDN [FAM9B] | 5.34 ± 0.26 | 5.28 ± 0.27

Sequence | protein stability index (treatment: DMSO) | protein stability index (treatment: MLN4924 1 uM, 8 h)
QKTLQVKCQHYKKKRTEQEETIAS [CEP70] | 4.33 ± 0.34 | 4.64 ± 0.2
PLFMAAFDGRHSQTLKAMVQAWPF [PRAME] | 2.16 ± 0.13 | 2.07 ± 0.31
EALCEEDLLLWIQKHTEVETVDLV [DENND6A] | 3.37 ± 0.25 | 3.08 ± 0.27
FALASLLQSAPDVKGRVRCLTAGP [ZSWIM9] | 2.02 ± 0.29 | 2.42 ± 0.24
NKLALQYGCKVADIKKVNNFIREQ [LYSMD4] | 2.25 ± 0.22 | 2.38 ± 0.42
KPGEGRSALFAGNEWRRPIIQFVE [TRIM29] | 2.34 ± 0.35 | 2.86 ± 0.46
FGIVEIDGMLYILGGEDGEKELIS [GAN] | 2.35 ± 0.25 | 2.31 ± 0.29
ISPGKNATGMEVGWYRPPFSRVVH [MOG] | 2.45 ± 0.17 | 2.69 ± 0.23
AVNSGGPLESIDHSVTGFLCEPDP [ALG2] | 4.82 ± 0.21 | 4.91 ± 0.22
IEEYMVHVEEHFQLLARRMQVDKK [FUT8] | 3.06 ± 0.35 | 3.2 ± 0.27
DSASPVEDTSNDESSILGTDIDLQ [M1AP] | 5.62 ± 0.2 | 5.62 ± 0.21
TSSSTVVSTQRSQDHFHVFVGDLS [TIA1] | 3.34 ± 0.071 | 3.42 ± 0.23
LGTPTSSTPRPSITPTKKIELDRT [C2CD2L] | 4.94 ± 0.18 | 4.88 ± 0.24
HWPQGPTGPPGPPGPMGPPGPPGP [EMID1] | 4.66 ± 0.22 | 4.73 ± 0.45
DSSHERTESQLTPCIRNVTSPTRQ [BTBD10] | 5.06 ± 0.15 | 5.1 ± 0.12
LPKPPGTPVVTESTATSITLTWDS [PTPRD] | 3.88 ± 0.087 | 3.88 ± 0.18
GEINVEMDAAPGVDLSRILNEMRD [KRT17] | 4.03 ± 0.22 | 3.99 ± 0.14
EASAEGPRAVFVLLEERRPADSAQ [TFE3] | 3.93 ± 0.28 | 3.95 ± 0.44
KEVFASRISNPSDDNSCEDLEEER [PCMTD2] | 5.55 ± 0.33 | 5.41 ± 0.31
LSFLDYRDLINCCYVSRRLSQLSS [FBXO3] | 2.59 ± 0.18 | 2.14 ± 0.48
EKKKAHYRQSSFPHCSDLMPSGSE [KCNA4] | 4.2 ± 0.2 | 4.31 ± 0.17
SNRGAYVKLGPALTPHIVQYQANK [PPEF2] | 2.9 ± 0.38 | 2.99 ± 0.41
